From patent publication US20250312475A1
Like-named read-outs stand apart in the source and are kept apart here.

B1: V1/V2 directed Ab “a” (antibody, V domains shown)
VH: QVHLTQSGPEVRKPGTSVKVSCKAPGNTLKTYDLHWVRSVPGQGLQWMGWISHEGDKKVIVERFKAKVTIDWDRSTNTAYLQLSGLTSGDTAVYYCAKGSKHRLRDYALYDDDGALNWAVDVDYLSNLEFWGQGTAVTVSS
VL: DFVLTQSPHSLSVTPGESASISCKSSHSLIHGDRNNYLAWYVQKPGRSPQLLIYLASSRASGVPDRFSGSGSDKDFTLKISRVETEDVGTYYCMQGRESPWTFGQGTKVDIK
B2: V1/V2 directed Ab “b” (antibody, V domains shown)
VH: QVQLVESGGGVVQPGTSLRLSCAASQFRFDGYGMHWVRQAPGKGLEWVASISHDGIKKYHAEKVWGRFTISRDNSKNTLYLQMNSLRPEDTALYYCAKDLREDECEEWWSDYYDFGKQLPCAKSRGGLVGIADNWGQGTMVTVSS
VL: QSVLTQPPSVSAAPGQKVTISCSGNTSNIGNNFVSWYQQRPGRAPQLLIYETDKRPSGIPDRFSASKSGTSGTLAITGLQTGDEADYYCATWAASLSSARVFGTGTKVIVL
B3: Binding Protein 2 (protein)
light 1: DFVLTQSPHSLSVTPGESASISCKSSHSLIHGDRNNYLAWYVQKPGRSPQLLIYLASSRASGVPDRFSGSGSDKDFTLKISRVETEDVGTYYCMQGRESPWTFGQGTKVDIKDKTHTASELTQDPAVSVALKQTVTITCRGDSLRSHYASWYQKKPGQAPVLLFYGKNNRPSGIPDRFSGSASGNRASLTITGAQAEDEADYYCSSRDKSGSRLSVFGGGTKLTVLDKTHTRTVAAPSVFIFPPSDEQLKSGTASVVCLLNNFYPREAKVQWKVDNALQSGNSQESVTEQDSKDSTYSLSSTLTLSKADYEKHKVYACEVTHQGLSSPVTKSFNRGEC
heavy 1: EVRLVESGGGLVKPGGSLRLSCSASGFDFDNAWMTWVRQPPGKGLEWVGRITGPGEGWSVDYAESVKGRFTISRDNTKNTLYLEMNNVRTEDTGYYFCARTGKYYDFWSGYPPGEEYFQDWGQGTLVIVSSDKTHTQVHLTQSGPEVRKPGTSVKVSCKAPGNTLKTYDLHWVRSVPGQGLQWMGWISHEGDKKVIVERFKAKVTIDWDRSTNTAYLQLSGLTSGDTAVYYCAKGSKHRLRDYALYDDDGALNWAVDVDYLSNLEFWGQGTAVTVSSDKTHTASTKGPSVFPLAPSSKSTSGGTAALGCLVKDYFPEPVTVSWNSGALTSGVHTFPAVLQSSGLYSLSSVVTVPSSSLGTQTYICNVNHKPSNTKVDKKVEPKSCDKTHTCPPCPAPELLGGPSVFLFPPKPKDTLMISRTPEVTCVVVDVSHEDPEVKFNWYVDGVEVHNAKTKPREEQYNSTYRVVSVLTVLHQDWLNGKEYKCKVSNKALPAPIEKTISKAKGQPREPQVYTLPPCRDELTKNQVSLWCLVKGFYPSDIAVEWESNGQPENNYKTTPPVLDSDGSFFLYSKLTVDKSRWQQGNVFSCSVLHEALHSHYTQKSLSLSPG
heavy 2: RAHLVQSGTAMKKPGASVRVSCQTSGYTFTAHILFWFRQAPGRGLEWVGWIKPQYGAVNFGGGFRDRVTLTRDVYREIAYMDIRGLKPDDTAVYYCARDRSYGDSSWALDAWGQGTTVVVSAASTKGPSVFPLAPSSKSTSGGTAALGCLVKDYFPEPVTVSWNSGALTSGVHTFPAVLQSSGLYSLSSVVTVPSSSLGTQTYICNVNHKPSNTKVDKKVEPKSCDKTHTCPPCPAPELLGGPSVFLFPPKPKDTLMISRTPEVTCVVVDVSHEDPEVKFNWYVDGVEVHNAKTKPREEQYNSTYRVVSVLTVLHQDWLNGKEYKCKVSNKALPAPIEKTISKAKGQPREPQVCTLPPSRDELTKNQVSLSCAVKGFYPSDIAVEWESNGQPENNYKTTPPVLDSDGSFFLVSKLTVDKSRWQQGNVFSCSVLHEALHSHYTQKSLSLSPG
light 2: YIHVTQSPSSLSVSIGDRVTINCQTSQGVGSDLHWYQHKPGRAPKLLIHHTSSVEDGVPSRFSGSGFHTSFNLTISDLQADDIATYYCQVLQFFGRGSRLHIKRTVAAPSVFIFPPSDEQLKSGTASVVCLLNNFYPREAKVQWKVDNALQSGNSQESVTEQDSKDSTYSLSSTLTLSKADYEKHKVYACEVTHQGLSSPVTKSFNRGEC
B4: Binding Protein 3 (protein)
light 1: ASELTQDPAVSVALKQTVTITCRGDSLRSHYASWYQKKPGQAPVLLFYGKNNRPSGIPDRFSGSASGNRASLTITGAQAEDEADYYCSSRDKSGSRLSVFGGGTKLTVLDKTHTDFVLTQSPHSLSVTPGESASISCKSSHSLIHGDRNNYLAWYVQKPGRSPQLLIYLASSRASGVPDRFSGSGSDKDFTLKISRVETEDVGTYYCMQGRESPWTFGQGTKVDIKDKTHTRTVAAPSVFIFPPSDEQLKSGTASVVCLLNNFYPREAKVQWKVDNALQSGNSQESVTEQDSKDSTYSLSSTLTLSKADYEKHKVYACEVTHQGLSSPVTKSFNRGEC
heavy 1: QVHLTQSGPEVRKPGTSVKVSCKAPGNTLKTYDLHWVRSVPGQGLQWMGWISHEGDKKVIVERFKAKVTIDWDRSTNTAYLQLSGLTSGDTAVYYCAKGSKHRLRDYALYDDDGALNWAVDVDYLSNLEFWGQGTAVTVSSDKTHTEVRLVESGGGLVKPGGSLRLSCSASGFDFDNAWMTWVRQPPGKGLEWVGRITGPGEGWSVDYAESVKGRFTISRDNTKNTLYLEMNNVRTEDTGYYFCARTGKYYDFWSGYPPGEEYFQDWGQGTLVIVSSDKTHTASTKGPSVFPLAPSSKSTSGGTAALGCLVKDYFPEPVTVSWNSGALTSGVHTFPAVLQSSGLYSLSSVVTVPSSSLGTQTYICNVNHKPSNTKVDKKVEPKSCDKTHTCPPCPAPELLGGPSVFLFPPKPKDTLMISRTPEVTCVVVDVSHEDPEVKFNWYVDGVEVHNAKTKPREEQYNSTYRVVSVLTVLHQDWLNGKEYKCKVSNKALPAPIEKTISKAKGQPREPQVYTLPPCRDELTKNQVSLWCLVKGFYPSDIAVEWESNGQPENNYKTTPPVLDSDGSFFLYSKLTVDKSRWQQGNVFSCSVLHEALHSHYTQKSLSLSPG
heavy 2: B3 heavy 2
light 2: B3 light 2

Columns and labels:
[1] = molecular target: HIV-1 Env of 20 pseudotyped viruses representing 10 different HIV-1 clades; experiment: cell-based or functional assay
[2] = molecular target: HIV-1 Env of 20 pseudotyped viruses representing 10 different HIV-1 clades; experiment: cell-based or functional assay; remark: listed apart in the source

Binder	% VS Neutralized: IC80 < 1 µg/mL (of 20 viruses) [1] [%]	% VS Neutralized: IC80 < 50 µg/mL (of 20 viruses) [1] [%]	Geometric Mean (IC80) [1] [µg/mL]	Total VS Neutralized: IC80 < 1 µg/mL (of 20 viruses) [1] [viruses]	Total VS Neutralized: IC80 < 50 µg/mL (of 20 viruses) [1] [viruses]	% VS Neutralized: IC80 < 1 µg/mL (of 20 viruses) [2] [%]	% VS Neutralized: IC80 < 50 µg/mL (of 20 viruses) [2] [%]	Geometric Mean (IC80) [2] [µg/mL]	Total VS Neutralized: IC80 < 1 µg/mL (of 20 viruses) [2] [viruses]	Total VS Neutralized: IC80 < 50 µg/mL (of 20 viruses) [2] [viruses]	Median IC80 [1] [µg/mL]
B1	45	55	0.094	9	11						
B2						45	45	0.039	9	9	
B3	65	90	0.222	13	18						0.375
B4	60	90	0.287	12	18						0.469
